From US20240117019A1 (UNIVERSITY OF GEORGIA RESEARCH FOUNDATION, published 2024)

Tests used:
[1] = biological target: T1, MBP-PspA fragment 1-438 fusion protein (Streptococcus pneumoniae strain TCH8431 …, UniProt P0AEX9 27-392 = MBP); assay: ELISA on coated MBP-PspA fragment, OD405
T1 construct: not shown: C-terminal His-tag encoded by the reverse primer PspA438-R

[2] = biological target: T2, MBP-PspA fragment 1-512 fusion protein (Streptococcus pneumoniae strain TCH8431 …, UniProt P0AEX9 27-392 = MBP); assay: ELISA on coated MBP-PspA fragment, OD405
T2 construct: not shown: C-terminal His-tag encoded by the reverse primer PspA512-R

[3] = biological target: T3, recombinant His-tagged full-length pneumococcal surface protein A (PspA) from strain TCH8431 (serotype 19A) (Streptococcus pneumoniae strain TCH8431 …); assay: ELISA on coated recombinant PspA, non-linear regression fit
T3 construct: range 1-725; also called recombinant PspA

[4] = biological target: T4, PspA protein of pneumococcal strain TCH8431 (serotype 19A), native, in lysates or on whole bacteria (Streptococcus pneumoniae strain TCH8431 …); assay: ELISA on plates coated with fixed whole bacteria, TCH8431 (19A), OD405
T4 construct: whole, on cells; also called PspA protein from strain TCH8431

B1: human monoclonal antibody PspA16 (antibody, V domains shown)
VH: QVQLVQSGPDVKKPGASVKVSCKTSGYTFTGYYMHWVRQAPGQGLEWMGWVNPNTGGTSYAQKFQGRVTVTRDTSISTVYMELSALGSDDTAIYFCARAWAPGAEYLHHWGQGTLVTVSS
VL: EIVMTQSPGTLSLSPGETATLSCRASQSVGSSYLAWYQQKPGQAPRLLIFGASNRATGIPVRFSASGSGTDFTLTISRLEPEDFAVYYCQQHDHSPFTFGPGTKVDLK
notes: also called mAb PspA16
EC50 (read off the curve) [1]: ~0.04 µg/mL
EC50 (read off the curve) [2]: ~0.04 µg/mL
EC50 [3]: 0.026 µg/mL
EC50 (read off the curve) [4]: ~0.08 µg/mL
